Source: paper PMC5607099 (Molecular microbiology, 2017)
Ends that are not written are not given here. * marks the point of attachment. Biotin = O=C1N[C@H]2[C@H](CS[C@H]2CCCCC(=O)*)N1

T1: His-tagged TamA (purified recombinant) (E. coli, UniProt P0ADE4 22-577)
T1 sequence (looked up): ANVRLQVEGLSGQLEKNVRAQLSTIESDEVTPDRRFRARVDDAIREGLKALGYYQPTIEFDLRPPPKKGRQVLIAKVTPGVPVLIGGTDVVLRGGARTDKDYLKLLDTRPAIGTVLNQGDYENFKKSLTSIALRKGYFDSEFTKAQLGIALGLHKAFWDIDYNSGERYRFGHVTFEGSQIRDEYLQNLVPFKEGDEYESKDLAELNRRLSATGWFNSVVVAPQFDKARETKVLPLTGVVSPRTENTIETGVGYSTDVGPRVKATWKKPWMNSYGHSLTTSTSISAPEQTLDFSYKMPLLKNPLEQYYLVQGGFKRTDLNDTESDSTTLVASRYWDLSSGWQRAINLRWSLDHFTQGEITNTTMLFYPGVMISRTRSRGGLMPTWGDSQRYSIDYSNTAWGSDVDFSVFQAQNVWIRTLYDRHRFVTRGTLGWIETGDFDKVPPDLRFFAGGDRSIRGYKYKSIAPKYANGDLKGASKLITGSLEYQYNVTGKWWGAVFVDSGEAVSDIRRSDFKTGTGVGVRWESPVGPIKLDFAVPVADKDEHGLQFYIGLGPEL

B1: FimD peptide 1 (β-strand 1) (peptide)
peptide: INAGLLNYNFSGNSVQNRSA
B2: FimD peptide 23 (β-strand 23) (peptide)
peptide: GGYGNANIGYSHSDDIKQSA
B3: FimD peptide 6 (β-strand 6), on the array (peptide)
peptide: FDGINFRGAQLASDDNMLSA
B4: His-tagged OmpF (natural protein, UniProt P02931 23-362, looked up)
chain: AEIYNKDGNKVDLYGKAVGLHYFSKGNGENSYGGNGDMTYARLGFKGETQINSDLTGYGQWEYNFQGNNSEGADAQTGNKTRLAFAGLKYADVGSFDYGRNYGVVYDALGYTDMLPEFGGDTAYSDDFFVGRVGGVATYRNSNFFGLVDGLNFAVQYLGKNERDTARRSNGDGVGGSISYEYEGFGIVGAYGAADRTNLQEAQPLGNGKKAEQWATGLKYDANNIYLAANYGETRNATPITNKFTNTSGFANKTQDVLLVAQYQFDFGLRPSIAYTKSKAKDVEGIGDVDLVNYFEVGATYYFNKNMSTYVDYIINQIDSDNKLGVGSDDTVAVGIVYQF
B5: FimD peptide 2 (β-strand 2) (peptide)
peptide: GGNSHYAYLNLQSGLNIGAA
B6: Biotin-FDGINFRGAQLASDDNMLK (FimD peptide 6 with N-terminal biotin and C-terminal lysine) (peptide)
peptide: Biotin-FDGINFRGAQLASDDNMLK

How the values were obtained:
[1] = molecular target: His-tagged BamA (purified recombinant) (E. coli, UniProt P0A940 21-810); experiment: peptide or protein array
[2] = molecular target: T1, His-tagged TamA (purified recombinant); experiment: peptide or protein array
semi-native SDS-PAGE = molecular target: the molecule itself; experiment: semi-native SDS-PAGE
[3] = molecular target: T1, His-tagged TamA (purified recombinant); experiment: cross-linking

| Binder | binding result [1] | binding result [2] | also measured |
| --- | --- | --- | --- |
| B1 | binds | – | – |
| B2 | – | binds | – |
| B3 | – | binds | – |
| B4 | – | – | stoichiometry N (semi-native SDS-PAGE): 3 |
| B5 | binds | – | – |
| B6 | – | – | binding result [3]: binds |
